Molecular target: T1, insoluble type I collagen fibers (UniProt P02453 162-1217; P02465 80-1117)
T1 construct: type I collagen, alpha-1(I) chain; type I collagen, alpha-2(I) chain; Triple-helical, insoluble fibres; also called insoluble collagen fibers; native collagen; source: bought: Sigma‐Aldrich
Assay: collagen-binding assay with Scatchard analysis; 2.5 mg insoluble type I collagen fibers in 50 μL binding buffer (50 mM Tris/HCl, 0.2 M NaCl, 5 mM CaCl2, pH 7.5) with 0.1–2.0 mg/mL C‐terminal segment and 0.05 mg/mL BSA; unbound protein in the filtrate by SDS/PAGE densitometry; triplicate; least‐squares fit
Details: both partners purified

T1 sequence (P02453 162-1217, chain 1 of 2): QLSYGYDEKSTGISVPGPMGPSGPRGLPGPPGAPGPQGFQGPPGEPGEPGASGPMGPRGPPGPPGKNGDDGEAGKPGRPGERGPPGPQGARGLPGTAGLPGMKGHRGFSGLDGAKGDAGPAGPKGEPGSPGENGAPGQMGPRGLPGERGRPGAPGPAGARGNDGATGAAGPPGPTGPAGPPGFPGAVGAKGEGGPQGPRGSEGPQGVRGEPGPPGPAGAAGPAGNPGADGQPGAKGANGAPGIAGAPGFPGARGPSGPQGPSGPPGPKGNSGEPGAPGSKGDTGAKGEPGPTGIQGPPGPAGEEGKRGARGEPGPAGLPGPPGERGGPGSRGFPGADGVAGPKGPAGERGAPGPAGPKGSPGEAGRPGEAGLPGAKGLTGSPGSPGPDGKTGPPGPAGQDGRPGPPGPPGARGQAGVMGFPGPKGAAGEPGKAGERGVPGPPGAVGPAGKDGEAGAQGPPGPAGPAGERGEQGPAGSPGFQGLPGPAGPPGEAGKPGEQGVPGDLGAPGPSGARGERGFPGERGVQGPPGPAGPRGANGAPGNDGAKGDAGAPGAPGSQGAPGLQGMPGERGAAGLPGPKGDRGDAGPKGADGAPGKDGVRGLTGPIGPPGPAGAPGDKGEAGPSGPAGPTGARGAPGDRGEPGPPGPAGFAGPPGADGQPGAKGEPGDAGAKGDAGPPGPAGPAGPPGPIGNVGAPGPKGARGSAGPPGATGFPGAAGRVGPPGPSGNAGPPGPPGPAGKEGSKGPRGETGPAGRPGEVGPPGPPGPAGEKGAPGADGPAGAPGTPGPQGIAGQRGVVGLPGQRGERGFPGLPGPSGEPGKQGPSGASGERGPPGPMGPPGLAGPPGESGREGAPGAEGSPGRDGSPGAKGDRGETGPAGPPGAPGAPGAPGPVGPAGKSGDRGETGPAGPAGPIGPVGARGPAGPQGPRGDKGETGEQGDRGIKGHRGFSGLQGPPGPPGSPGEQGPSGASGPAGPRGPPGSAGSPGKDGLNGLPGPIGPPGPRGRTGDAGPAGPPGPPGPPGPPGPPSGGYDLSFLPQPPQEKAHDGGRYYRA
T1 sequence (P02465 80-1117, chain 2 of 2): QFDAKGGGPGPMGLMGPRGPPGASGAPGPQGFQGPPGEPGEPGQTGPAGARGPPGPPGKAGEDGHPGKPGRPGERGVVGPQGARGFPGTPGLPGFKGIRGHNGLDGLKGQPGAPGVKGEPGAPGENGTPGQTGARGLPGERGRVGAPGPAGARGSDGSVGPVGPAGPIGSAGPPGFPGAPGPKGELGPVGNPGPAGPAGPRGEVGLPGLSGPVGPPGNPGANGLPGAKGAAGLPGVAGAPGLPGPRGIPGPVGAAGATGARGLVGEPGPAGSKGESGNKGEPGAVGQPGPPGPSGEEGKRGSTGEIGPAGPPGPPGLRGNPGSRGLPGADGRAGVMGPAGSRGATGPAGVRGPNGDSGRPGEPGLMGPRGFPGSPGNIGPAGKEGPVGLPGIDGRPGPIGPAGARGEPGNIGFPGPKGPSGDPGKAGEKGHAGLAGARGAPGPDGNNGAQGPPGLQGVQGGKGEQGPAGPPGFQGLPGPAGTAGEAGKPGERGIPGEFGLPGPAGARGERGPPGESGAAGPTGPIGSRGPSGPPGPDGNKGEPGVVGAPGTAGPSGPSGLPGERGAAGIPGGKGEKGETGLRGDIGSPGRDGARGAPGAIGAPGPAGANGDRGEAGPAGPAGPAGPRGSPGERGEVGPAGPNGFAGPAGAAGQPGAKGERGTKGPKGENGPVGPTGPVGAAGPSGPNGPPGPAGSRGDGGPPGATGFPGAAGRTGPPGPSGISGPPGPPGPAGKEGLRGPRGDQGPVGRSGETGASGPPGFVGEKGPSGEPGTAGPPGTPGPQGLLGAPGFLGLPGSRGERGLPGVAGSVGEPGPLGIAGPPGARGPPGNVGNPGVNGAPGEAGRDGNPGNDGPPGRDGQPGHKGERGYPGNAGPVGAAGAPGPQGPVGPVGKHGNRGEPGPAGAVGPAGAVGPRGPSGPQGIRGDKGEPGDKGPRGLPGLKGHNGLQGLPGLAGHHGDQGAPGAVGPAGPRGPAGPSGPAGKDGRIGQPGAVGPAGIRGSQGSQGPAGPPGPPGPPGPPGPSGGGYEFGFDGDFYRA

B1: recombinant C‐terminal segment (aa 616–767) including the PPC domain of Grimontia hollisae strain 1706B collagenase (domain or fragment)
chain: TEALAKGDSGAGNGEGTGSGNEGGGESGGNTGLPENCAVLPKISDGRLALDEAACLADTASASDVLWFSIPAVSEYQTIAITAGNGTGDLTLEYSNLNWPDGTNVQASSANMGNSECIILEHQANYWGYLKVSGSFENAALLVEAGSNQCRQ
notes: 15.4 kDa; The forward primer carries the enterokinase site (DDDDK) just before residue T616, so the cleaved His-tag was probably N-terminal (surmised); QTOF-MS mass 15 445.01 Da fits two intrachain disulfide bonds; also called G. hollisae
Which Kd does the source give for B1 here?
Its Kd is 27.2 µM.

— article PMC6168687, “The C‐terminal segment of collagenase in Grimontia hollisae binds collagen to enhance collagenolysis” (FEBS Open Bio, 2018)
